The assay deals with T1, HA-Halo-MRAP2 (human), Q96G30.
T1 chain: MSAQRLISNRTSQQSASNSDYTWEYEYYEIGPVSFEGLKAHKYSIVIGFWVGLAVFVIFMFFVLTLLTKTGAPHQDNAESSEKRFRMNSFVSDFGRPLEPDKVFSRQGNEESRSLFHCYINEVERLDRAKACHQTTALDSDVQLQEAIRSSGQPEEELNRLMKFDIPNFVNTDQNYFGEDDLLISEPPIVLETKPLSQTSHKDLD
In words: single-molecule pull-down (SiMPull); one-colour SiMPull with photobleaching step analysis: HA-Halo-tagged protein labelled on HEK293 cells with membrane-impermeable CA-Sulfo646, lysed in 0.5% LMNG/0.05% CHS, immobilised by biotinylated anti-HA antibody on a PEG-passivated slide, TIRF imaging. The note with it: remark: other sources report otherwise.

From paper doi:10.1101/2024.11.06.622243 come the findings set out here.

A value given as a limit tells only on which side of the number the result lay.

B1: HA-Halo-MRAP2, Q96G30 1-205 (natural protein)
chain: MSAQRLISNRTSQQSASNSDYTWEYEYYEIGPVSFEGLKAHKYSIVIGFWVGLAVFVIFMFFVLTLLTKTGAPHQDNAESSEKRFRMNSFVSDFGRPLEPDKVFSRQGNEESRSLFHCYINEVERLDRAKACHQTTALDSDVQLQEAIRSSGQPEEELNRLMKFDIPNFVNTDQNYFGEDDLLISEPPIVLETKPLSQTSHKDLD
modifications: here or on the partner: CA-Sulfo646 dye on the Halo tag; CA-Sulfo646 dye on the Halo tag
B1 had a percent of molecules with one bleaching step of 68%, a percent of molecules with three or four bleaching steps of less than 5% and a percent of molecules with two bleaching steps of 28%.
